In PMC7105897:

What was measured:
[1] = target: N2 NA of the 1957 H2N2 pandemic isolate A/Japan/305/1957 (influenza A virus A/Japan/305/1957 (H2N2)); assay: crystal structure
[2] = target: N9 NA from the H7N9 epidemic isolate A/Hunan/02650/2016 (influenza A virus A/Hunan/02650/2016 (H7N9)); assay: crystal structure
[3] = target: N2 NA of the seasonal influenza virus strain A/Hong Kong/4801/2014 (H3N2) (influenza A virus A/Hong Kong/4801/2014 (H3N2))

N2 NA of the 1957 H2N2 pandemic isolate A/Japan/305/1957 (enzyme)
stoichiometry N [1]: 4

N9 NA from the H7N9 epidemic isolate A/Hunan/02650/2016 (enzyme)
stoichiometry N [2]: 4

antigen-binding fragment (Fab) of 1G01
IC50 of inhibition of NA activity of H3N2 A/Hong Kong/4801/2014 in ELLA (Fab) [3]: 7.62 nM
